# Data reported in the domain aggregation screens of Martell et al. (2025).
# Experiment: soluble fraction after stress (log2 fold change); higher = more stays soluble; pooled small domains, quantitative proteomics
# Conditions: stress: 75 degC
# 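Note: 20 min heating vs room temperature control held 20 min.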
row,Sequence,soluble fraction (log2)
1,HMPSSQQVMRRLATVGPDKTLEELQRQHDAHLRKYGEFNDFRGERQQMRQEMERIKEAKQGTGPYAHLMG,0.025
2,HMPTAGYMTVTPDRVKEGQQFLATLRPPYVLKADGLAAGKGVLILPELEEAQRELEEMLGGFLGELSVNR,0.136
3,HMPTERLSMRRIRELLRLRFEVGLSTRLIATALGISKGAVGDYLQRAQVAGLGWPLPENLNDAALERRLFP,-1.38
4,HMPTGRVVIPLNRLTASDVARILDEAYGRDHNFEVVKPSRLAKGIIVIGPKSEIDGIKELLAH,-0.829
5,HMPTLLGYKHILSAWNPDTNTVFRTSYGYDGEYGSREEAMQALIKMIQEGGKATPRGIEESEVPIY,-0.238
6,HMPTLSKVGSQGEEVRQIQTKLKNWGYLNDRVDGIYGPKTRDAVIWFQKKNGLVADGIAGPATLKAMGIFT,-0.142
7,HMPTMVAQINEIVQAKLPGSGLKDYTIRLVESQRDGVVVWVNGTRYLGVDEVAEPQVQALLKEAVAEWERS,-0.462
8,HMPTQGELAILRVLWEQGPSTVRAVWEKLNSQSGTGYTTALKLMQIMAQKGLVSRDESQKTHVYRA,-1.54
9,HMPTTRPEAEAHYETHQRYHDLQIDVEGREAFKVATGSLTLVQEFDEKDDYDLSIPTPRSPAILLTT,-0.0329
10,HMPVFYVTGNRVNFRAGPSTGDRVIGSLSQGAAVEVLGPTDDAWINIRDSDGRVGYMSAQFLSQ,0.355
11,HMPVLDETVPAALDGERIDRVVALLADVSRNRAGIAIAAGSVRLDGAVVTQRSRKVRADEELVVDGLER,0.107
12,HMPVNEEFKRLIDKIKYEFSINQAQISERLGVKSTYLSDMINGRVPYNESMQKKIHEVFHIG,-0.424
13,HMPVNGEFIERIKVMVLENKAKGKKERLTKTRMHQLLQEEGYKGSYSAFTHQVRIIEEELGVNQKEAH,-0.48
14,HMPVSRMRARHEALARGVMGIHAGGFSAVYGYRKVWHGLIGKGWDPGEVGRDQVMNIMRGLGMQGVRR,-0.132
15,HMPVSVAEQKQILAEALQERGHATFRELIENADNRMIVVGRFLALLELYRDGTVRFEQERALGELTIHWEE,-2.07
16,HMPYIVNHIHLKSEDPKITADWFVKAFNFEIVSDVVRHFGDRFIVTKAEGGMTINISGVRDGEEL,0.141
17,HMPYNNLADAPASWKKLDDTPLTLGQVNWIAKIYDALVAKGMEKGAAAGTAISRFKKSFKVADGKWVQV,-0.478
18,HMPYNRRYLISNADGALYTVEENGLVKLEETNLTAELFETRGMQDIPDGKLLITLHDPTILYWHDSENLFP,-1.5
19,HMPYSPTPGSAPARLIAHLQEHGDSVNRTAIAELLQVDRKNVHNYLARAVTHGLLLRHGGGAYSLP,0.0908
20,HMQADEENPKYPVITDGVIQLEVLESIDKTEEWLVERLAKDGYNNVSEIFIAEYENGNLSIVT,0.0913
21,HMQADPYTVLGVLRDVTDGELKREYRKLVREHHPDALIAQGVPQEFVDIANNKLAVINAAYERIAKQRGL,-0.154
22,HMQAGILTDTAAKNARIKKIDTERLEAELDQKRIVIVTGFQGVDRNQNITTLGRGGSDTSAVALAAAVSIT,0.171
23,HMQAKDVEIPNFVGKTLAEANADNKDNFNFVVESKYDASKELGVILEQEPAADSKLVKSGSQITLKV,≥ 1.04
24,HMQALDNNDALEEIIKKVITENPSQVTEFRNGKDSLMNFLVGKVMAASGGKANPKTLPETIEKIIK,0.277

row,Sequence,soluble fraction (log2)
1,HMQAMDYEGFKKEILKMSDIDLSLYKEKQMKRRIDSLIRKNGYEHYEDYVQALKQDSGLYNEFINYLTI,0.571
2,HMQANLPFSELLADVDRGLISDVTIKGDQVSGHYTDGRTFNTFIPPEADLVRRLTEKNVRIAAVPD,-0.113
3,HMQAPAFDYSKVQEGVTVNHKIFGDGTVSWIDKARKYIRVQFSVGEKMFTMETAFVQGFLSL,-1.19
4,HMQAPVDPIVLGKMGSSYGIRGWLRVFSSTEDAESIFDYQPWFIQKAGQWQQVQLESWKHHNQDMIIKLN,0.2
5,HMQARLPFSFAKRHGVILLAATGEGQSDVIYKSGFDIGALAEVRRFVAGEIALKEVDGPSFDRQLTLTYQN,-2
6,HMQARSQQTIQTLFKAAAQILDKEGEAGLSTNKVAAAAGFSIGTLYQYFPSKEVLIQAMAAR,0.219
7,HMQASISVDEAKSIALNYAKFTADQVVYTKSELDYDDGRAEYEIEFYAGGKEYSFTIDAVSGTVLEMEI,-2.26
8,HMQATDEEIENFTSSAITAYKLTKEEGYIISMRDMKPIMEIVKTEYPMANGKVVSKVMNNYING,0.0264
9,HMQDELSSSVIEEAVVVLLLRAANIDGKKDEQEIEAIKRLIIQQFNYDEEKADILITSASEK,0.0178
10,HMQDGTILPGQKTAIRSLATSGGYDSQDLDTYLATTYGKSIDGLTRTEGADVIKAFQAGTVAK,0.436
11,HMQDLEIKINLGMTYYEVREAIGSPDIIDKINQYGRDFQMWTYYIDDKTKRYYFEDHLLTKI,-2.84
12,HMQDLPPIHLSRGMTDYTLVRSRRRTLSMELKRDGTVVVHAPLRLGVEKIDAFVAAHEAWLARARTRQAER,-2.59
13,HMQDNPELVARIEKAAARGTSSMSDWERSFMGSLLDSAKKWGRLTAKQHEVFQRIEKKTDPAHQAAVS,0.111
14,HMQDPRITRTRGLILQAFDALLVEKGFHALSVQAIAGRAGINRATFYAHFADKYALLDTSIQE,0.227
15,HMQDREKNIAEGRDIIEHEFMRLGISLSRYDLDGLASKLNVKAGDDVLAGVGAGDIRVSQIISQLG,-0.0551
16,HMQDTVKNVFGAFTIFTDKPFAIGDTINVNGLEGTVVDVGMRSTQILGYDRRITSYPNYKITDSSIVNISS,-0.0554
17,HMQDVVFTVDKDQTGAEIGDMLYEKGIISSPTTFRLALRLTGSMDKLQQGYYQIPQNASLRQVIALLQKG,-0.35
18,HMQDYYTQSDFARYLEDKGIHFPQNKIAVYRKRGKFPKEDLVVAGTPYWSKYTVESFAKHLLEQQN,0.254
19,HMQEAATSLNAKILAKLRENNGTLAVSDKSDPALISSLFGVSKGNFKKAIGALYKNGQIVIHADRIEL,-0.813
20,HMQEDQKTSIFDIEGVEKGVASVLSSIKVEIVSDLLEADMDDILKSGKISEDDLDGVYEAVQNFVER,0.41
21,HMQELNDQQRLAILNEWNNRATNPPSLLELVRVAFPDAEGADGRSWHGKKVKEFLSTRQIKARAS,0.0119
22,HMQENFYMILESEERRVLDVLVADQPESVATFLKLVSPFPNYKIILEHINEKALDFYEETVI,-0.35
23,HMQESTILPAQKSAISSLATSAGFSSENLKRYLLQNYGVDLKDLTRSQGAEVIKAFQSGNVSKP,0.281
24,HMQETPAMLAMKELPTEDEQRIYMMLQEDYDSVLLVKTIRNAFSQNPQLTRQQLLPIILTWLMT,-1.33

row,Sequence,soluble fraction (log2)
1,HMQGATVYIKSDDIGKTTNEQGSFNFDKLKKNRYTLEISFIGYETKNLQAYTDRENIVQLNRKS,-0.307
2,HMQGEVPYSQFLTEVDRGDVQSVVIEGNNISGFYKNSSTAFTVVAPDDPKLVERLMEQGVEVKARPV,0.112
3,HMQGEVVTNRSVIDMSRAGLSADIIRAKILRSDTNFDVTAKALIELKESGVPDDIIALMLERADS,0.00604
4,HMQGIPVTVTAERANLRSGPGTSFDKLGQVVQGDVLTLLEVQNDWYKVKTAEGKTAFVAAYLVNSP,-0.269
5,HMQGQADFTQGIANFTQYPVGSRITVFTLEGRRVAVVEIGKDGTAQLDMRNKPAGVYIVNTGKQSFKWLK,-2.65
6,HMQGRIYLNPDLAEKLRAQYAAYPHWSYLLHTENLGALVRKTESLGPMPSYSTILRYMHANDMRKRNKP,-1.78
7,HMQGVNLTETEKNFIAQVLSPLLKQGQSLYQIRTNHPEIKLSVKTLYTYIESGIFKESGINNFSLRRQ,-0.122
8,HMQILNVFSKHGIKPISPQIGDKFDPQLHEAMFEAPVPGTKAGDIIEVSSEGFMLYDRLLRPAHVGVSSN,-0.0306
9,HMQILPAFLPENPELRARLANHSLEELTEILKQYKTLHNSTDVDTVKRAIRAIEIEEYYAVHPV,-0.731
10,HMQINLKQSSDEELVKIITVQVHHYEPHTVKAAEAEIERRGIDKMRMAHLVKKVAQENTAVQEIQD,0.297
11,HMQISDDSELIKIVDNILANSQKQIDDYHNGKTNLFGFFVGQVMKETKGKANPVKVNEILKDKL,-0.00828
12,HMQISDSSLIAKTVATVILENPEAVSDYLGGKHSVVRFMVGQIMKKTQGKANPKMATEMLETALNDL,-1.88
13,HMQISDTTELSTLITKVLSEQSDALVDFKNPKKQKQVIGYLTGQVLRASQGKANPGLVRSLLEEQLSALDS,0.0724
14,HMQISMQNIASVKIDDLSDEQIQEFSTKYTAAGYSFPDVENVAKQKGMPSSEIEKLRQRVLTAQNTQEK,0.283
15,HMQISSSEVLEKVVDEILSANPKSIEDYKNGKLQAAGFLMGQVMKATKGQANPAVAKELIEAKLKD,0.461
16,HMQISYDVPNLIGKSYEEVMTDPSILGEHFTVVLGETKTDEDTDAGVILHQDPAADSKVQDEVTPITVTVS,0.374
17,HMQITDTEAIATTLDEIIAANPKEWERLKAGQEQLVKFFVGQVMRVTKGRANPQVVNDLLKERL,-0.346
18,HMQITNEGQIKLVISEVLNENQEQKKQYLSGKEQVLGYLIGKVMQKTKGKANPKLVNDLMIKELS,-0.135
19,HMQITSTDEIEKMIDELIAANPEQTKQYQNGNHKVAGWFVGQMMKASKGKANPQMVNNLLQKKL,0.278
20,HMQITTVSPKNYAEAELIGQRFREGNPVVMDLSKLDSDLGQRLVDFASGLVFALNGTVERIAKKVFLLSP,-1.37
21,HMQIVHKHLQLQPDQGALRAALYSHKAVVAEQVNEQGAINLEIKLAESDFLRLLKSSGLKLQDLVSLS,-1.35
22,HMQKAQEYILVDIKGEVQTPGVYKLPVNSRVIDAIEASGGLTKKAVTTYINLSKTLKDENVIIINKKSEL,-0.59
